The text below walks through data of patent US20250057968A1, “ANTI-DLL3 ANTIBODY AND PHARMACEUTICAL USE THEREOF, AND ANTIBODY-DRUG CONJUGATE CONTAINING ANTI-DLL3 ANTIBODY” (Jiangsu Hengrui Pharmaceuticals Co., Ltd., priority 2021, published 2025).

The target in experiment [1] is T1, Human DLL3 full-length protein on cells (human, UniProt Q9NYJ7 27-618).
T1 sequence: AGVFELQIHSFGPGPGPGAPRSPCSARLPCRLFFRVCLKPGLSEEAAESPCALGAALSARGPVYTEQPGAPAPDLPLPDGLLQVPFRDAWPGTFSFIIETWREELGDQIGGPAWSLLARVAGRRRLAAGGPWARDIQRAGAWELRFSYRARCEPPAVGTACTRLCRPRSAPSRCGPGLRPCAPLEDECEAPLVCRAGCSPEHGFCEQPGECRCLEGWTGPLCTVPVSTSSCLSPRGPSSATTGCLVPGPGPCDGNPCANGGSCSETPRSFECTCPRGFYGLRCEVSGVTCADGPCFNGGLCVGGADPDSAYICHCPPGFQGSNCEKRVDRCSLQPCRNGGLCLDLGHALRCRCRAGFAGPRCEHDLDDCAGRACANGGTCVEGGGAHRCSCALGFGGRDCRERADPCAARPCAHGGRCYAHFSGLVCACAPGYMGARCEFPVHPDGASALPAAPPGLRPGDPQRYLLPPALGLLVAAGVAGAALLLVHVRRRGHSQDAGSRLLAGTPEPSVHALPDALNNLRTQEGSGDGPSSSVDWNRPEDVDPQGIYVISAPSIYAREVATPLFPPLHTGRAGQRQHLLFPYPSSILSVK
Kind of experiment: cell-based or functional assay.

The target in experiment [2] is T2, Human DLL1 full-length protein on CHO-s cells (human, UniProt O00548 18-723).
T2 construct: also called human DLL1/CHO-s
T2 sequence: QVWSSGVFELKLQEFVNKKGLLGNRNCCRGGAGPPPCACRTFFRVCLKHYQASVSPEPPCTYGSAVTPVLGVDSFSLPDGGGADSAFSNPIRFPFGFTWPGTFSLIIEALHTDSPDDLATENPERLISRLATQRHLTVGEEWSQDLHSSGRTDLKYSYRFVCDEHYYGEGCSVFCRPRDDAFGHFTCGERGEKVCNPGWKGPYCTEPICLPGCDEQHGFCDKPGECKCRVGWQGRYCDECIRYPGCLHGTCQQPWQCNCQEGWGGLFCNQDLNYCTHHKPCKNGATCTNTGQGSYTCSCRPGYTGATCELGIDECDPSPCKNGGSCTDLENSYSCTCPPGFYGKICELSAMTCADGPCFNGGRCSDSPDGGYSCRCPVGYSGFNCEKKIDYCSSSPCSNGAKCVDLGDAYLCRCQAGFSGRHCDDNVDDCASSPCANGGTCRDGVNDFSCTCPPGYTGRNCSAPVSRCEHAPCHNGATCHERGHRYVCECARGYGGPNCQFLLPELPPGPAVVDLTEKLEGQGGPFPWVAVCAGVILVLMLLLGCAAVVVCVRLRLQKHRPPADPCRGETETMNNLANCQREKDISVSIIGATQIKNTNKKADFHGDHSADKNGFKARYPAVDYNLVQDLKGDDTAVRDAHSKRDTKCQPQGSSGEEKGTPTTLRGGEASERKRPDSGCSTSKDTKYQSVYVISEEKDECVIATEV
Kind of experiment: FACS on human DLL1/CHO-s cells. The procedure: (§1) Stably transfected human DLL1/CHO-s and human DLL4/CHO-s cells were suspended at 1×10⁶/mL in FACS buffer (containing 1% BSA and pH 7.4 PBS), and the cell suspensions were added to a 96-well round-bottom plate (Corning, 3795) at 100 µL/well. The plate was centrifuged at 300 g for 5 min, and the supernatant was removed. Test antibodies were added at 100 μL/well, and the plate was incubated in the dark in a refrigerator at 4° C. for 1 h. After 3 washes by centrifugation at 300 g, working concentrations of PE F(ab′)2-goat anti-human IgG Fc secondary antibody (invitrogen, H10104) were added. The plate was incubated in the dark in a refrigerator at 4° C. for 40 min. After 3 washes by centrifugation at 300 g, the geometric mean fluorescence intensity was measured on an Invitrogen flow cytometer.

Experiment [3] concerns the target T3, Human DLL4 full-length protein on CHO-s cells (human, UniProt Q9NR61 27-685).
T3 construct: also called human DLL4/CHO-s
Kind of experiment: FACS on human DLL4/CHO-s cells. As to the method:
as §1

The target in experiment [4] is T4, hDLL3(ECD)-strep twin, biotinylated (human, UniProt Q9NYJ7 27-492, biotinylated (site not stated)).
T4 construct: also called Biotinylated DLL3 antigen; Biotinylated DLL3-Strep
Nature of the experiment: ELISA, biotinylated antigen on streptavidin plate. The procedure: Streptavidin (abcam, ab136200, 1 μg/mL) was plated at 100 μL/well, and the plate was incubated overnight at 4° C. The plate was washed 3 times with 250 μL of PBST solution (PBS containing 0.1% Tween 20) per well. The plate was blocked with 250 μL of 5% milk per well at 37° C. for 2 h. The plate was washed 3 times with 250 μL of PBST solution per well. Biotinylated DLL3 antigen (1 μg/mL) (SEQ ID NO: 9) was added, and the plate was incubated at 37° C. for 1 h. The plate was washed 3 times with 250 μL of PBST solution per well. […] The plate was washed 6 times with 250 μL of PBST solution per well. […] The plate was washed 6 times with 250 μL of PBST solution per well. TMB (KPL, 5120-0077) substrate solution was added at 100 μL/well, and color development was allowed at room temperature for 5-10 min. 1 M H₂SO₄ was added at 100 μL/well to stop the color development, and microplate reader (Molecular Devices, VERSA max) readings at 450 nm were taken.
A general note: An ELISA detects its analyte on a solid surface through an enzyme-linked reagent.

Experiment [5] deals with cynomolgus monkey DLL3 (KACTUS, DLL-RM103) (cynomolgus monkey). Nature of the experiment: SPR (Biacore 8K), antibody captured on Protein A chip, 1:1 fit. Background: SPR reads the build-up and loss of mass on a sensor chip optically.

Broadly, the EC50 is the concentration needed to bring the measured effect to its halfway point. The term Kd denotes a measure of binding affinity in units of concentration.

T3 sequence (Q9NR61 27-685 limits assumed): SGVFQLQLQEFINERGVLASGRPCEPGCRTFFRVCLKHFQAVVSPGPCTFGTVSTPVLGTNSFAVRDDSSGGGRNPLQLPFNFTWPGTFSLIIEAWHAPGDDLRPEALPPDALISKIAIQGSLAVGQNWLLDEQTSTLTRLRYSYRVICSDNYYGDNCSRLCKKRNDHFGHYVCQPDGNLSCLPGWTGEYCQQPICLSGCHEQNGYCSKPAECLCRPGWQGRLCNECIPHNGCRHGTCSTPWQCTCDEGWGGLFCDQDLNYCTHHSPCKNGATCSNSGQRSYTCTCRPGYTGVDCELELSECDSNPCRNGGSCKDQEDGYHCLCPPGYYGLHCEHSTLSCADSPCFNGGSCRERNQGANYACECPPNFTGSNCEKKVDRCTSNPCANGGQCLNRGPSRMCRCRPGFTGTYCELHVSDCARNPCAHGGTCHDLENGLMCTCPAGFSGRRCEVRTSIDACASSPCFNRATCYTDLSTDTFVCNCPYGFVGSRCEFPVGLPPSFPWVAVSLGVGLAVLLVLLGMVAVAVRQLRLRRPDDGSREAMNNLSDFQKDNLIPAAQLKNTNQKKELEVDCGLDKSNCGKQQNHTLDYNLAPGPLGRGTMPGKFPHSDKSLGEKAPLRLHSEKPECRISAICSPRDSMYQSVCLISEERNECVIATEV

B1: Hu6 (antibody, human IgG1, kappa, V domains shown)
VH: EVQLVQSGSELKKPGASVKVSCKASGYTFTDYYMNWVRQAPGQGLEWMGIINPYSGVTIYNHKFKGRFALSVDKSSNTAYLQISSLKAEDTAVYYCARQDSLLDYAMDYWGQGTTVTVSS
VL: DIQMTQSPSSLSASVGDRVTITCHASQGISGNMGWLQQKPGKAPKGLIYHGANLEDGVPSRFSGSGSGADYTLTISSLQPEDFADYYCVQYAQFPYTFGGGTKVEIKR
notes: also called hAb6L4H12
As for B1, in experiment [1], the “IC50 (nM), cell killing caused by endocytosis of antibodies (DT3C, DMS53/DLL3 cells)” value came out at 0.56 nM and the “Imax, cell killing caused by endocytosis of antibodies (DT3C, DMS53/DLL3 cells)” value came out at 87.2. The binding result in experiment [2] is given as “no binding”. Moreover, the binding result in experiment [3] was “no binding”. This molecule yielded an EC50 in experiment [4] of 0.04 nM. Also, the Kd in experiment [5] was 1.31 nM.

B2: Hu100 (antibody, human IgG1, kappa, V domains shown)
VH: EVQLVESGGGLVKPGGSLRLSCAASGFTFSDSGMHWIRQAPGKGLEWVSYISSGSSTIHYADTVKGRFTISRDNAKNSLYLQMNSLRAEDTAVYYCASPLYYYGRSYNAVAYWGQGTTVTVSS
VL: DIQMTQSPSSLSASVGDRVTITCHASQNINVWLSWYQQKPGKVPKLLIYKASDLHTGVPSRFSGSGSGTDFTLTISSLQPEDVATYYCQQGQSYPLTFGGGTKVEIKR
notes: also called hAb100L1H1
As for B2, the “IC50 (nM), cell killing caused by endocytosis of antibodies (DT3C, DMS53/DLL3 cells)” value in experiment [1] was 1.47 nM. Besides, the “Imax, cell killing caused by endocytosis of antibodies (DT3C, DMS53/DLL3 cells)” value in experiment [1] was determined as 86.1. The binding result in experiment [2] and in experiment [3] was “no binding” throughout. The molecule also displayed an EC50 in experiment [4] of 0.05 nM. For the same molecule, the Kd in experiment [5] amounted to 1.11 nM.
